Assay results taken from the DeepSol protein solubility set.

Assay: soluble on expression in E. coli; label from the status in PepcDB or PDB records

Sequence | soluble on expression in E. coli
MASDPITTQEFSPRQNAVLDQALRLLVEGGEKALTTSGLARAANCSKESLYKWFGDRDGLLAAMITFQQSKVRTFEKAGDRVSAPQLADHLEVFAHDLLDVLAGDVSLALNRLAIGQASRDGSKLGDLLLERGRRQIDRRARGLIEAGRRSGYLRFDDAEEAYRSFYGLIVSDLHVRMLLGEAPDKDFSARAKKAVVAFLTLYGTEKVHSELGGKVA | soluble
MASEPIQITPNLAIPPGEIVERFVRASGAGGQNVNKVSTAVELRFDVAGSPSLPEPLRARLLSRRDRRMTADGVLVIDAQRFRTQDRNREDARERLAEIINACLSVPKRRVATKPSHGAKLRRLDAKRERSQIKRGRSASHWELEHHHHHH | soluble
MASINLIKSLKLYKEKIWSFDFSQGILATGSTDRKIKLVSVKYDDFTLIDVLDETAHKKAIRSVAWRPHTSLLAAGSFDSTVSIWAKEESADRTFEMDLLAIIEGHENEVKGVAWSNDGYYLATCSRDKSVWIWETDESGEEYECISVLQEHSQDVKHVIWHPSEALLASSSYDDTVRIWKDYDDDWECVAVLNGHEGTVWSSDFDKTEGVFRLCSGSDDSTVRVWKYMGDDEDDQQEWVCEAILPDVHKRQVYNVAWGFNGLIASVGADGVLAVYEEVDGEWKVFAKRALCHGVYEINVVKWLELNGKTILATGGDDGIVNFWSLEKAA | soluble
MASKYAVKLKTDFDNPRWIKRHKHMFDFLDINGNGKITLDEIVSKASDDICAKLEATPEQTKRHQVCVEAFFRGCGMEYGKEIAFPQFLDGWKQLATSELKKWARNEPTLIREWGDAVFDIFDKDGSGTITLDEWKAYGKISGISPSQEDCESTFRHCDLDNAGDLDVDEMTRQHLGFWYTLDPEADGLYGNGVP | soluble
MASLLTETMPFRMTMEGTVNGHHFKCTGKGEGNPFEGTQDMKIEVIEGGPLPFAFDILSTSC | soluble
MASMPSRTALSPGVLSPTRPVPNWIARPEYVGKPAAQEGSEPWVQTPEVIEKMRVAGRIAAGALAEAGKAVAPGVTTDELDRIAHEYLVDNGAYPSTLGYKGFPKSCCTSLNEVICHGIPDSTVITDGDIVNIDVTAYIGGVHGDTNATFPAGDVADEHRLLVDRTREATMRAINTVKPGRALSVIGRVIESYANRFGYNVVRDFTGHGIGTTFHNGLVVLHYDQPAVETIMQPGMTFTIEPMINLGALDYEIWDDGWTVVTKDRKWTAQFEHTLLVTDTGVEILTCL | soluble
MASQTQGIQQLLAAEKRAAEKINEARKRKLQRTKQAKQEAQAEVEKYKQQREAEFKAFEQQYLGTKEDIESKIRRDTEDQISGMKQSVAGNKQAVIVRLLQLVCDIKPELHHNLTLQKKLHGQFAA | not soluble
MASRETILDVLAKLEECKETLNNSLNYDEAANSNGSSTFQDQSEIKIEHIAPNLVFENGTVPQEQSNSFQWYEEEVSNDACVSSNEYSGVKLCPFNIGFKSYNTPPDQMQQLDKSISDNMACRMNVDFSGIDRLIQHGSEDMRTVGYGMRGMMKLLQIQHEKLMGKKPDDVTTGLKASLVPARFLKEKTVIVRNLTDDADINVNKVFGQLTAQSSSLKNIVINAANVWIKNVVPDEQRKLYSTSIKPQQPQITFPAQLLNGPAGLLVRCLSVTGGDNSSNAVNISLLFKQHVSNLFNHARSKSGITNSRKRKQQSEDYSYN | not soluble
MASTSAATPLKNKRKFENGKKKPKTLKDEFGEKLDIKPVIVPPKPADEYDYDSSDEEDLRNTIGNIPIKWYDDEDHIGYDKFGEKIAKPAKKGEIETFLEKMEDPDYWRKVFDKQTGTDVKLTDEQIEKIHNIATGKYPTIGYNPYEPFLDIFSSQKEIHPIDNRPEPKSRFIPSKDEMRMVSRMVHAIKMGWAKGPRAKKEEHKSYDLWASEDALDNVTKSQLSRMRVHMPAPKVALPTHAESYNPPEEYIFDDEERKKWEEAEKEDRVLNFMPSKYDALRKVPQYDKFITERFERCLDLYLAPRQRKMRIHADPTDLLPDLPNPNDLRPFPTTLAFYMRGHTGQVRAITVEPERGELLASGGEDGTVRIWMIATGRCIKTFQMDGEVTSVSFSPVADRTLLAVAYEGKYVAILNTGCGDRLHVQQTEALLAETPTDAQEDGAVVTWRKSKEKLMLKMPNEVRQVTWHSKGDYFASVAIDDIAKSVYVHQLSKAKSQCPFQKRKGHVQAVTFHPTQARLFVATKIHVREYDLARCVLVKKLITGCKHISTMATDANGENLFLGGLDRRFCWMDLQMGNKPWKKLKHHTAAVRSVAYHKKYPLLATVSDDGTAMVYYARIYTDFVKDNELYPVKRLRAHEKTPNDLCMLHTTWHPTQPWLITAGADGTIALFTY | not soluble
MASTSTGLPPNWTIRVSRSHNKEYFLNQSTNESSWDPPYGTDKEVLNAYIAKFKNNGYKPLVNEDGQVRVSHLLIKNNQSRKPKSWKSPDGISRTRDESIQILKKHLERILSGEVKLSELANTESDCSSHDRGGDLGFFSKGQMQPPFEEAAFNLHVGEVSNIIETNSGVHILQRTG | soluble
MASYKKERLENDIIRLINRTVIHEIYNETVKTGHVTHVKLSDDLLHVTVYLDCYNREQIDRVVGAFNQAKGVFSRVLAHNLYLAKAVQIHFVKDKAIDNAMRIESIINSLKKSKPN | soluble
MATAVVQRKGYDNVELSLSEDDDPVKEKKKSKGNEKKSSTESKSKESKETSKEEDLAQKKFLMTQKTQSMTEDEKEVKPKAPESQKPKKNSAEESNEKIKKEGSVKVETVASKVKPASSRVPPIASTPGKGSVDGEQKKKSTGCCIIL | soluble
MATDSWALAVDEQEAAAESLSNLHLKEEKIKPDTNGAVVKTNANAEKTDEEEKEDRAAQSLLNKLIRSNLVDNTNQVEVLQRDPNSPLYSVKSFEELRLKPQLLQGVYAMGFNRPSKIQENALPLMLAEPPQNLIAQSQSGTGKTAAFVLAMLSQVEPANKYPQCLCLSPTYELALQTGKVIEQMGKFYPELKLAYAVRGNKLERGQKISEQIVIGTPGTVLDWCSKLKFIDPKKIKVFVLDEADVMIATQGHQDQSIRIQRMLPRNCQMLLFSATFEDSVWKFAQKVVPDPNVIKLKREEETLDTIKQYYVLCSSRDEKFQALCNLYGAITIAQAMIFCHTRKTASWLAAELSKEGHQVALLSGEMMVEQRAAVIERFREGKEKVLVTTNVCARGIDVEQVSVVINFDLPVDKDGNPDNETYLHRIGRTGRFGKRGLAVNMVDSKHSMNILNRIQEHFNKKIERLDTDDLDEIEKIAN | soluble
MATFNLNGLGTPKSATYDNESAYRELLSRVNNGESIVVSVYTDKDNYPAFGIETKKVARFKVRVNQSLLSLLVGYLNNSTVNEDTVRANEVEPNEEGQDFTTDLFKLLIDEGFTPQIAPLFRTVYGYVNAVFNFPNGRMYFRLEHTDELMDYLADKKLL | not soluble
MATHGQTCARPMCIPPSYADLGKAARDIFNKGFGFGLVKLDVKTKSCSGVEFSTSGSSNTDTGKVTGTLETKYKWCEYGLTFTEKWNTDNTLGTEIAIEDQICQGLKLTFDTTFSPNTGKKSGKIKSSYKRECINLGCDVDFDFAGPAIHGSAVFGYEGWLAGYQMTFDSAKSKLTRNNFAVGYRTGDFQLHTNVNDGTEFGGSIYQKVCEDLDTSVNLAWTSGTNCTRFGIAAKYQLDPTASISAKVNNSSLIGVGYTQTLRPGVKLTLSALVDGKSINAGGHKVGLALELEA | soluble
MATKITINVTNNSTSTQNFFFFQQPAVYSGGPKVYTNSLYSQTLLPYATSGSVLSFTMILQYYAGVQQQVDPPQIGQPSGQLGAIQPIELTPASGGTPTKNTTNMTVDPSLGLSVPVSTDGPQAGSFRIVTPVYDPVLMNYSAGSAVQSLTGAITLSNFVTAQPNTNLDCQPIIKFYVQTGTYTAGTVMNFTSSSVGAALCDATPGFTTFNVSYNPNGTWTVKNMALSQLANGSRGLLEKSSFTTELNAAAQIAEVLNEAGTAVVSTGLAANFLRPVTVTNLTAPGAIIRNRDYQVGPVDGRHLGLTCTDVAGNTAVFD | not soluble
MATLDVNPELYQAQLADKIARLKAMFVDYSMPELEVFESPVANYRMRAEFRIWHEGDDMYYIMFNQETREKYRVDQFPAASRLINDLMPLLMDAMKGSPILRHKLFQVDFLSTLSGEILVSLLYHRQLSEEWITAAQALKQRLNDEGFNLNLIGRARKMKVVLDRDYVVENLQVNGQPYVYKQVENSFTQPNAKVAEKMLEWAVDCTQESKGDLLELYCGNGNFSLALAQNFERVLATELAKPSVEAAQFNIAANQIGNVQIIRMSAEEFTQAMEGKREFNRLKDAGVDLQSYRCNTIFVDPPRSGMDIDTCKMVQGYERILYISCNPETLQENLQVLGETHQVVRFALFDQFPYTHHMEAGVMLERKK | not soluble
MATLEDGTSEDRVANDEYKIWKKNTPFLYDLVMTHALEWPSLSVQWLPDVAKDNSDHTIHRLILGTHTSDEQNHLLISKICMPTDDAQFDASRYDTERSEYGGFGAVNGKVEPDIRINHEGEVNRARYMPQKSNIIATKSPHADVYIFDYLKHSAVPRDNTFNPLIRLKGHTKEGYGLSWNPNKEGLILSASDDQTVCHWDINANQNVAGELQAKDVFKGHESVVEDVAWHVLHDGVFGSVGDDKKLLIWDVRTSTPGHCIDAHSAEVNCLAFNPYSEFILATGSADKTVALWDLRNLRMKLHSFESHRDEIFQVQWSPHNETILASSGTDKRLHVWDLSKIGEDQSAEDAEDGPPELLFIHGGHTAKISDFSWNPNEPWVVCSVSEDNILQVWQMADNIYNEVDEETPADVVERQQ | not soluble
MATNRSRRLRKKLCVDEFQELGFELNLDFKQELDDKAIDAFLDAFLKEAMEANGLGYVGGDDFGLVCLSKRGSVSEEQRAAVEAWLKGRSELTEVTVSPLIDVWY | not soluble
MATPAYMSITGTKQGLITAGAFTEDSVGNTYQEGHEDQVMVQGFNHEVIIPRDPQSGQPTGQRVHKPVVITKVFDKASPLLLAALTSGERLTKVEIQWYRTSAAGTQEHYYTTVLEDAIIVDIKDYMHNCQDPGNAHFTHLEDVHFTYRKITWTHEVSGTSGSDDWRSPVAG | soluble
MATQLLMPKATAVWLVDNTALTFDQIAEFCKLHVLEVKAIADGEAAYGIKGLDPISSGQLTRSEIARVEADKNARLKISQSKVHIPEKKRKGARYIPLSRRQDRPNGILWLVTNHPELKDAQIARLIGTTKGTIEQIRNRTHWNSANLVALDPVGLGLCLQIDLDIELKRAAKNRPLSNEEDKSLLPASVTENVAIHEKEHEQDFNKNFDADKVFAKLNALQKNRENDASTELEHHHHHH | soluble
MATRFKGLSAFPITPADEAGRVDIEAFSALIARLDAAEVDSVGILGSTGIYMYLTREERRRAIEAAATILRGRRTLMAGIGALRTDEAVALAKDAEAAGADALLLAPVSYTPLTQEEAYHHFAAVAGATALPLAIYNNPTTTRFTFSDELLVRLAYIPNIRAIKMPLPADADYAGELARLRPKLSDDFAIGYSGDWGCTDATLAGGDTWYSVVAGLLPVPALQLMRAAQAGNAEEAKRLDATFQPLWALFKEFGSIRVIYAAANILSLTVSEPPRPILPLTSAERQRVEEALEALSALETAP | not soluble
MATRFMTDPHAMRDMAGRFEVHAQTVEDEARRMWASAQNISGAGWSGMAEATSLDTMAQMNQAFRNIVNMLHGVRDGLVRDANNYEQQEQASQQILSS | not soluble
